Results as given in PMC9251316, “Engineering the Active Site Pocket to Enhance the Catalytic Efficiency of a Novel Feruloyl Esterase Derived From Human Intestinal Bacteria Dorea formicigenerans” (Frontiers in Bioengineering and Biotechnology, 2022).

B1: DfFAE (Dorea formicigenerans; N156A) (protein)
chain: MNQKKECMDVHVNGLKFHVQTFGSGVPIIMIMGLGAPGDKWKHNYELLSKWFWCIVPDNRGAGLSDKPEAESYTTEQMADDIIGIMDALDIKKAHVMGVSMGGAIAQQVALKVPDRVLSLILTSTFASVSPAFKKALNLICELKEDTDPAVLKQLALWMTYGQYTQIHHPEKIEKSIEEDAAYPYPMPVYAYKAQCGACLSHNTAGRLHELKMPVLIAAGAKDLFMNIEKTMELVHGIPQAEFYLAPEGGHVHQWEYPEPYDSVVVGFLMKHTN
notes: E. coli T7; trimeric by SEC (117 kDa)
B2: DfFAE (Dorea formicigenerans) (protein)
chain: MNQKKECMDVHVNGLKFHVQTFGSGVPIIMIMGLGAPGDKWKHNYELLSKWFWCIVPDNRGAGLSDKPEAESYTTEQMADDIIGIMDALDIKKAHVMGVSMGGAIAQQVALKVPDRVLSLILTSTFASVSPAFKKALNLICELKEDTDPAVLKQLNLWMTYGQYTQIHHPEKIEKSIEEDAAYPYPMPVYAYKAQCGACLSHNTAGRLHELKMPVLIAAGAKDLFMNIEKTMELVHGIPQAEFYLAPEGGHVHQWEYPEPYDSVVVGFLMKHTN
notes: as for B1
B3: DfFAE (Dorea formicigenerans; V252A) (protein)
chain: MNQKKECMDVHVNGLKFHVQTFGSGVPIIMIMGLGAPGDKWKHNYELLSKWFWCIVPDNRGAGLSDKPEAESYTTEQMADDIIGIMDALDIKKAHVMGVSMGGAIAQQVALKVPDRVLSLILTSTFASVSPAFKKALNLICELKEDTDPAVLKQLNLWMTYGQYTQIHHPEKIEKSIEEDAAYPYPMPVYAYKAQCGACLSHNTAGRLHELKMPVLIAAGAKDLFMNIEKTMELVHGIPQAEFYLAPEGGHAHQWEYPEPYDSVVVGFLMKHTN
notes: as for B1
B4: DfFAE (Dorea formicigenerans; W255A) (protein)
chain: MNQKKECMDVHVNGLKFHVQTFGSGVPIIMIMGLGAPGDKWKHNYELLSKWFWCIVPDNRGAGLSDKPEAESYTTEQMADDIIGIMDALDIKKAHVMGVSMGGAIAQQVALKVPDRVLSLILTSTFASVSPAFKKALNLICELKEDTDPAVLKQLNLWMTYGQYTQIHHPEKIEKSIEEDAAYPYPMPVYAYKAQCGACLSHNTAGRLHELKMPVLIAAGAKDLFMNIEKTMELVHGIPQAEFYLAPEGGHVHQAEYPEPYDSVVVGFLMKHTN
notes: as for B1
B5: DfFAE (Dorea formicigenerans; P186A) (protein)
chain: MNQKKECMDVHVNGLKFHVQTFGSGVPIIMIMGLGAPGDKWKHNYELLSKWFWCIVPDNRGAGLSDKPEAESYTTEQMADDIIGIMDALDIKKAHVMGVSMGGAIAQQVALKVPDRVLSLILTSTFASVSPAFKKALNLICELKEDTDPAVLKQLNLWMTYGQYTQIHHPEKIEKSIEEDAAYPYAMPVYAYKAQCGACLSHNTAGRLHELKMPVLIAAGAKDLFMNIEKTMELVHGIPQAEFYLAPEGGHVHQWEYPEPYDSVVVGFLMKHTN
notes: as for B1
B6: DfFAE (Dorea formicigenerans; P149A) (protein)
chain: MNQKKECMDVHVNGLKFHVQTFGSGVPIIMIMGLGAPGDKWKHNYELLSKWFWCIVPDNRGAGLSDKPEAESYTTEQMADDIIGIMDALDIKKAHVMGVSMGGAIAQQVALKVPDRVLSLILTSTFASVSPAFKKALNLICELKEDTDAAVLKQLNLWMTYGQYTQIHHPEKIEKSIEEDAAYPYPMPVYAYKAQCGACLSHNTAGRLHELKMPVLIAAGAKDLFMNIEKTMELVHGIPQAEFYLAPEGGHVHQWEYPEPYDSVVVGFLMKHTN
notes: as for B1

What was measured:
[1] = target: feruloyl esterase from Dorea formicigenerans (DfFAE) (Dorea formicigenerans); assay: SEC; Superdex 200 Increase 10/300 GL; elution volume 12.9 ml; mass markers conalbumin 75 kDa and aldolase 158 kDa; apparent MW about 117 kDa
[2] = substrate: CC(=O)Oc1ccc([N+](=O)[O-])cc1; assay: purified protein; assay type: biochemical, Dorea formicigenerans; settings: 10 mM Tris-HCl pH 8.4, 2.5% Triton X-100, 40 °C
[3] = substrate: CCCC(=O)Oc1ccc([N+](=O)[O-])cc1; assay: purified protein; assay type: biochemical, Dorea formicigenerans; settings: 10 mM Tris-HCl pH 8.4, 2.5% Triton X-100, 40 °C
[4] = substrate: CCCCCCCC(=O)Oc1ccc([N+](=O)[O-])cc1; assay: purified protein; assay type: biochemical, Dorea formicigenerans; settings: 10 mM Tris-HCl pH 8.4, 2.5% Triton X-100, 40 °C

Row | Molecule | stoichiometry N [1] | Km [2] [µM] | kcat [2] [s⁻¹] | kcat/Km [2] [M⁻¹ s⁻¹] | Km [3] [µM] | kcat [3] [s⁻¹] | kcat/Km [3] [M⁻¹ s⁻¹] | Km [4] [µM] | kcat [4] [s⁻¹] | kcat/Km [4] [M⁻¹ s⁻¹]
1 | feruloyl esterase from Dorea formicigenerans (DfFAE) (enzyme) | 3 | – | – | – | – | – | – | – | – | –
2 | B1 | – | 644.7 ± 40.59 | 14.8 ± 0.333 | 22940 ± 85.5 | 334.3 ± 43.69 | 2.85 ± 0.0997 | 8520 ± 166 | – | – | –
3 | B2 | – | 572 ± 56.57 | 4.42 ± 0.165 | 7730 ± 136 | 357.3 ± 68.62 | 0.798 ± 0.0436 | 2230 ± 247 | 526.2 ± 73.57 | 0.186 ± 0.00865 | 354 ± 186
4 | B3 | – | 288.9 ± 53.8 | 12.8 ± 0.51 | 44130 ± 226 | 83.61 ± 8.65 | 1.07 ± 0.0216 | 12830 ± 124 | 99.87 ± 18.76 | 0.52 ± 0.018 | 5200 ± 222
5 | B4 | – | 809.7 ± 182.4 | 12.1 ± 0.891 | 14900 ± 299 | – | – | – | 178.2 ± 13.66 | 2.87 ± 0.0543 | 16100 ± 95.6
6 | B5 | – | 824 ± 242.1 | 11.3 ± 1.21 | 13700 ± 400 | – | – | – | – | – | –
7 | B6 | – | 803.7 ± 107.8 | 17.4 ± 0.809 | 21690 ± 181 | – | – | – | 428.8 ± 35.31 | 1.08 ± 0.0243 | 2510 ± 105
